Entries after “also recorded” stand apart in the source; their conditions may differ.
B1: WT-hCx47: human wild type Cx47 construct in bicistronic pIRES2-EGFP vector, expressed in HeLa cells or LECs (protein, UniProt Q5T442 1-439, looked up)
Gap junction gamma-2 protein: MTNMSWSFLTRLLEEIHNHSTFVGKVWLTVLVVFRIVLTAVGGEAIYSDEQAKFTCNTRQPGCDNVCYDAFAPLSHVRFWVFQIVVISTPSVMYLGYAVHRLARASEQERRRALRRRPGPRRAPRAHLPPPHAGWPEPADLGEEEPMLGLGEEEEEEETGAAEGAGEEAEEAGAEEACTKAVGADGKAAGTPGPTGQHDGRRRIQREGLMRVYVAQLVARAAFEVAFLVGQYLLYGFEVRPFFPCSRQPCPHVVDCFVSRPTEKTVFLLVMYVVSCLCLLLNLCEMAHLGLGSAQDAVRGRRGPPASAPAPAPRPPPCAFPAAAAGLACPPDYSLVVRAAERARAHDQNLANLALQALRDGAAAGDRDRDSSPCVGLPAASRGPPRAGAPASRTGSATSAGTVGEQGRPGTHERPGAKPRAGSEKGSASSRDGKTTVWI
B2: G146S: Cx47 missense mutant G146S (436G>A), intracellular loop, construct expressed in HeLa cells or LECs (protein, listed as Homo sapiens)
chain: MSWSFLTRLLEEIHNHSTFVGKVWLTVLVVFRIVLTAVGGEAIYSDEQAKFTCNTRQPGCDNVCYDAFAPLSHVRFWVFQIVVISTPSVMYLGYAVHRLARASEQERRRALRRRPGPRRAPRAHLPPPHAGWPEPADLGEEEPMLSLGEEEEEEETGAAEGAGEEAEEAGAEEACTKAVGADGKAAGTPGPTGQHDGRRRIQREGLMRVYVAQLVARAAFEVAFLVGQYLLYGFEVRPFFPCSRQPCPHVVDCFVSRPTEKTVFLLVMYVVSCLCLLLNLCEMAHLGLGSAQDAVRGRRGPPASAPAPAPRPPPCAFPAAAAGLACPPDYSLVVRAAERARAHDQNLANLALQALRDGAAAGDRDRDSSPCVGLPAASRGPPRAGAPASRTGSATSAGTVGEQGRPGTHERPGAKPRAGSEKGSASSRDGKTTVWI

Legend:
Type in all cases: cell-based, human
HeLa cells [1] = test: Cx47 gap junction plaque formation by immunofluorescent confocal microscopy in transfected HeLa cells; details: near confluent transfected HeLa cells
Protocol: Human neonatal foreskin was collected anonymously as discarded tissue according to an IRB protocol. Samples were collected immediately after harvest in DMEM, then fixed in 2% paraformaldehyde for 2 hrs, then stored in 30% sucrose in 1×PBS overnight for cryosectioning, and sectioned in 6 μm slices at −30° C. Transfected (stable and transient) and untransfected HeLa cells were grown to near confluence in coverslip bottom dishes. All cells were rinsed with PBS and fixed with 2% paraformaldehyde. Subsequently, tissue and HeLa cells were processed similarly: following permeabilization with 0.1% Triton X, cells were blocked with 2% BSA. A human Cx47 antibody (ab) was obtained from the S. Scherer laboratory: polyclonal rabbit against amino acids 344-399 in the cytoplasmic C-terminal tail; we used human CNS tissue and positive oligodendrocyte staining as a positive control and primary antibody delete and rabbit IgG as negative controls (data not shown). Cx47 ab was diluted in 0.5% BSA in a 1:200 ratio, applied to cells and incubated at RT for one hour. Mouse monoclonal Proxl (Chemicon) was used as a lymphatic marker for the foreskin samples. Cells were incubated with the secondary abs (Donkey Anti-Rabbit Cy5 and Donkey Anti-Mouse Cy3; Invitrogen) for one hour at RT and washed; Draq5 was used as a nuclear marker. HeLa images were acquired with an inverted Olympus Fluoview 1000 Confocal Microscope 100× oil, 1.4 NA objective. Foreskin images were acquired on a Zeiss Meta LSM 510 inverted confocal microscope with 40× oil, 1.3 N.A. objective. LECs (primary human microvascular adult dermal lymphatics; Lonza) were grown in fibronectin coated coverslip bottom MatTeks dishes in EGM™-2 MV—Microvascular Endothelial Cell Medium-2 (Lonza Inc.) to approximately 80% confluence, and prepared similarly but a commercially available (AbCam) Cx47 ab, polyclonal rabbit against amino acids 41-70 in the human sequence was used along with Drag 5 nuclear marker and phalloidin to mark f-actin.
Immunofluorescence microscopy determines the presence or absence of Cx47 gap junction plaques when the constructs are transiently expressed in HeLa cells. Cx plaques reflect a physiologic accumulation of Cx channels in the cell membrane between cells (tens to thousands of channels); thus plaques are indicative of normal trafficking and gap junction formation at the cell membrane.
Immunofluorescence microscopy determines the presence or absence of Cx47 gap junction plaques when the constructs are transiently expressed in HeLa cells. A human Cx47 antibody was obtained: polyclonal rabbit against amino acids 344-399 in the cytoplasmic C-terminal tail (Orthmann-Murphy J L, et al. Mol Cell Neurosci 2007; 34:629-41); we used human CNS tissue and positive oligodendrocyte staining as a positive control and primary antibody delete as a negative control (data not shown). Cultured HeLa cells were routinely fixed and stained with the primary antibodies against Cx47, along with a nuclear marker, and transfected cells were identified by their EGFP signal. Plaques were imaged using an Olympus Fluoview 1000 confocal microscope, 100× oil objective.

HeLa cell pairs = test: Dual whole cell patch clamp recording of coupling current in transfected HeLa cell pairs; details: for elect coupling: Table 3 (Example 2); for elect coupling / electrical coupling: HeLa cell pairs, 100 mV step, mean ± SEM; for electrical coupling: Table 6 (Example 4); for electrical coupling / functional channels in HeLa cell pairs (in words): transfected HeLa cell pairs, voltage step protocol −100 to +100 mV
Protocol: Coupling currents were recorded using simultaneous double whole-cell patch clamp recordings from isolated pairs of cells that were in contact with one another (determined visually) as previously described. Briefly, the pipette solution consisted of (mM): 130 CsCl, 10 EGTA, 10 HEPES, 3 Mg-ATP, 2 Na-ATP, 0.5 CaCl2, pH 7.3. The culture was bathed in a solution consisting of (mM): 140 NaCl, 5 HEPES, 5 glucose, 4 KCl, 2 CsCl, 2 CaCl2, 2 pyruvate, 1 BaCl2, pH 7.3. Transfected HeLas undergo electrophysiologic analysis in a blinded manner. Pairs of cells were chosen for study only if both expressed the GFP marker indicative of successful transfections; both stable and transient transfectants were analyzed. Patch pipettes were fabricated from borosilicate glass, and coupling currents were amplified by Axopatch 200A amplifiers, filtered at 1 KHz, and digitized at 5 KHz for subsequent analysis using pClamp software (Axon Instruments/Molecular Devices; Sunnyvale, Calif.). All experiments were carried out at room temperature (22° C.). Coupling current was quantified by measuring the peak current recorded in the pair when the neighboring cell received a 100 mV step membrane potential change (in both positive and negative directions). Step changes in membrane potential were delivered to each cell in the pair in sequence and the average current recorded in the neighboring cell was determined and divided by 100 to generate coupling current expressed in pA/mV. Means±SEM were calculated and statistical significance using a one-way analysis of variance and Tukey's post-hoc test, p<0.05.
Coupling current is quantified by measuring the peak current recorded in the pair when the neighboring cell receives a 100 mV step membrane potential change (in both positive and negative directions). Step changes in membrane potential are delivered to each cell in the pair in sequence and the average current recorded in the neighboring cell determined and divided by 100 to generate coupling current expressed in pA/mV (FIG. 6C). Replicate measurements (n=3-6) are made on at least two different days. […] The untransfected HeLa cell pairs also show minimal channel function, as predicted.
Electrophysiologic characteristics of GJIC were measured between HeLa cell pairs transfected with the mutant constructs (as indicated by EGFP expression) by dual whole cell patch clamp recording. All experiments were carried out in a blinded manner. Coupling current is quantified by measuring the peak current recorded in the pair when the neighboring cell receives a 100 mV step membrane potential change (in both positive and negative directions). Step changes in membrane potential are delivered to each cell in the pair in sequence and the average current recorded in the neighboring cell determined and divided by 100 to generate coupling current expressed in pA/mV. Untransfected HeLa cells and cells transfected with empty vector (i.e., no hCx47) were used as additional controls.

HeLa cells [2] = test: Wound assay (proliferation/migration) in confluent transfected HeLa cells; details: for wound assay: fraction of original wound in HeLa cell monolayer after 24 hrs, mean ± SEM
Protocol: The wound assay, a measure of proliferation/migration, was performed using differential interference contrast time lapse of over 24 hrs using confluent transfected HeLa cells. Analysis was done using TScratch (Geback T, et al. TScratch: a novel and simple software tool for automated analysis of monolayer wound healing assays. Biotechniques 2009; 46:265-74), mean±SEM of at least 10 positions along wound; the scrape width was normalized to the first image for each position. In all cases a two tailed student's T test was applied with p<0.05 considered significant.

Row | Molecule | Cx47 plaque formation (in words) (HeLa cells [1]) | Cx47 plaque formation (in words) (HeLa cells [1]; listed as WT-hCx47-EGFP) | elect coupling (HeLa cell pairs) [pA/mV] | electrical coupling (HeLa cell pairs) [pA/mV] | electrical coupling / functional channels in HeLa cell pairs (in words) (HeLa cell pairs) | electrical coupling / functional channels in HeLa cell pairs (in words) (HeLa cell pairs; listed as WT hCx47) | electrical coupling / functional channels in HeLa cell pairs (in words) (HeLa cell pairs; listed as WT-hCX47-EGFP) | wound assay (HeLa cells [2]) | wound closure compared to WT-hCx47-EGFP transfected cells (in words) (HeLa cells [2]; HeLa cells, cell scratch assay)
1 | B1 | Presence | Cx47 intercellular plaques | 31.6 | 35.9 | show evidence of voltage-dependent gating | well coupled | well coupled | 0.72 | 
2 | B2 | Cx47 intercellular plaques |  | 16.2 | 32.4 | well coupled |  |  | 0.62 | faster wound closure; also recorded: more rapid closure

Reference: patent US9260754B2, “Connexin mutation detection for lymphatic variation and disease” (University of Pittsburgh—Of the Commonwealth System of …, priority 2010, dated 2016)
